# Key:
# Assay in all cases: two-hybrid
# [1] = molecular target: BD-MLA13^F99E (CC domain mutant of MLA13 fused N-terminally to the LexA binding domain) (barley)
# [2] = molecular target: BD-MLA13 (wild-type MLA13 fused N-terminally to the LexA binding domain) (barley)
# [3] = molecular target: BD-MLA13^D2A_E17A (α1-helix mutant of MLA13 fused N-terminally to the LexA binding domain) (barley)
substance,measurement,setting,value
"AD-AVRA13-V2 (AVRA13-V2 lacking signal peptide, fused N-terminally to the B42 activation domain and 1xHA) (natural protein)",lowest dilution of yeast with growth without leucine,[1],0.01 OD600
same,lowest dilution of yeast with growth without leucine,[2],0.001 OD600
same,lowest dilution of yeast with growth without leucine,[3],0.01 OD600

# From doi:10.1101/2023.01.11.523539
